One protein from paper PMC4319037, “The B-type Channel Is a Major Route for Iron Entry into the Ferroxidase Center and Central Cavity of Bacterioferritin*” (The Journal of Biological Chemistry, 2014) can be followed below.

This data set concerns the molecule itself. Briefly: crystal structure; hanging-drop vapor diffusion; ammonium sulfate (50-80% saturated), NaCl 0.1 M, Tris HCl 20 mM pH 7.2; BFR D132F with <1 heme/24-mer; 12 monomers in the asymmetric unit; 2.0 Å.

B1: E. coli bacterioferritin D132F variant (natural protein)
chain: not shown
notes: Bacterioferritin (BFR), E. coli, bfr gene in pET21a (pALN1) with D132F made by QuikChange; the model holds '12 complete monomers' in the asymmetric unit (1896 C-alpha atoms for the 12-mer, i.e. 158 per chain); Crystallised with <1 heme/24-mer, free of metal ions (apo); no tag is mentioned; also called BFR D132F; apo-D132F variant; copies: 24
As to B1, the binding result is recorded as “binds”.
